US20160237157A1

What was measured:
[1] = target: T1, FGFR4 (solid phase receptor-binding assay) (Homo sapiens (Human)) (UniProt P22455); assay: solid phase receptor-binding assay; LD1 titrated, inhibition of FGF1 binding to FGFR4
T1 sequence: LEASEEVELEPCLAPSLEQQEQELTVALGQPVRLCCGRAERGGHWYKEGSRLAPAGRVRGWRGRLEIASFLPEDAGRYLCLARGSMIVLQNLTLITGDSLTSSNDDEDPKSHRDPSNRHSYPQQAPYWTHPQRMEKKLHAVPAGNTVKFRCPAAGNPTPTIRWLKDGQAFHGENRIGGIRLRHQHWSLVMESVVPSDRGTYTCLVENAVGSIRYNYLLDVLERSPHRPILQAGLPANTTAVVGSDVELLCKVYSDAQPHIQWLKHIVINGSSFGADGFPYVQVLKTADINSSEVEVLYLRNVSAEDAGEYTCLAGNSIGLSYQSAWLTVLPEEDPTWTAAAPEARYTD

[2] = target: T1, FGFR4 (solid phase receptor-binding assay) (Homo sapiens (Human)); assay: solid phase receptor-binding assay; LD1 titrated, inhibition of FGF19 binding to FGFR4
[3] = target: human FGFR4-FGFR1 chimeric construct (hFGFR4/R1) on BaF3 cells (human) (UniProt P11362); assay: cell-based or functional assay
[4] = target: T2, human FGFR4 (soluble, Part B: SPR and FGFR4 ELISA) (human) (UniProt P22455); assay: SPR (BIAcore-2000), antibody immobilized, human FGFR4 injected
T2 sequence: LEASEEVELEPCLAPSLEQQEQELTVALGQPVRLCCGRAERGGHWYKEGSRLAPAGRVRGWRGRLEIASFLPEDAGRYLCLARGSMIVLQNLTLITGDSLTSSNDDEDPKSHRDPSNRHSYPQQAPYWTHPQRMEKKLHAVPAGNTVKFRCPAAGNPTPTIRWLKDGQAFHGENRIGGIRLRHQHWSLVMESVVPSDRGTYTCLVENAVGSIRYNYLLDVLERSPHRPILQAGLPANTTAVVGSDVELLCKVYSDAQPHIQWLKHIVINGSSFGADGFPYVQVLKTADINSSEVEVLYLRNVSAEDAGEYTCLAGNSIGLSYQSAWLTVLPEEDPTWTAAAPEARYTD

B1: chimeric LD1 (chLD1) (antibody, from a related filing, human IgG1, V domains shown)
VH: EVQLQQPGAVLVRPGTSVKLSCKASGYTFTNHWMNWVKQRPGQGLEWIGMIHPSDSETTLDQKFKDKATLTVDKSSSTAYMQLNRPTSEDSAVYYCTRGDISLFDYWGQGTTVTVSS
VL: DIQMTQTTSSLSASLGDRVTITCRTSQDISNFLNWYQQKPDGTFKILISYTSRLHSGVPSRFSGSGSGTDYSLTISTLEQEDFATYFCQQGNALPYTFGGGTKLEIE
IC50 [1]: 0.093 nM | IC50 [2]: 0.102 nM | inhibition of FGF1-stimulated proliferation of BaF3/FGFR4/R1 cells (5 nM FGF1), IC50 [3]: 17.4 nM | Kd [4]: 0.45 nM | koff [4]: 0.000173 s⁻¹
